According to article PMC11322666 (2024):

B1: UPF3B^WT, Flag tagged [human] / UPF2, endogenous [human (endogenous in HEK293T)] (parent complex)
chain 1: MKEEKEHRPKEKRVTLLTPAGATGSGGGTSGDSSKGEDKQDRNKEKKEALSKVVIRRLPPTLTKEQLQEHLQPMPEHDYFEFFSNDTSLYPHMYARAYINFKNQEDIILFRDRFDGYVFLDNKGQEYPAIVEFAPFQKAAKKKTKKRDTKVGTIDDDPEYRKFLESYATDNEKMTSTPETLLEEIEAKNRELIAKKTTPLLSFLKNKQRMREEKREERRRREIERKRQREEERRKWKEEEKRKRKDIEKLKKIDRIPERDKLKDEPKIKVHRFLLQAVNQKNLLKKPEKGDEKELDKREKAKKLDKENLSDERASGQSCTLPKRSDSELKDEKPKRPEDESGRDYREREREYERDQERILRERERLKRQEEERRRQKERYEKEKTFKRKEEEMKKEKDTLRDKGKKAESTESIGSSEKTEKKEEVVKRDRIRNKDRPAMQLYQPGARSRNRLCPPDDSTKSGDSAAERKQESGISHRKEGGEE
chain 2: MPAERKKPASMEEKDSLPNNKEKDCSERRTVSSKERPKDDIKLTAKKEVSKAPEDKKKRLEDDKRKKEDKERKKKDEEKVKAEEESKKKEEEEKKKHQEEERKKQEEQAKRQQEEEAAAQMKEKEESIQLHQEAWERHHLRKELRSKNQNAPDSRPEENFFSRLDSSLKKNTAFVKKLKTITEQQRDSLSHDFNGLNLSKYIAEAVASIVEAKLKISDVNCAVHLCSLFHQRYADFAPSLLQVWKKHFEARKEEKTPNITKLRTDLRFIAELTIVGIFTDKEGLSLIYEQLKNIINADRESHTHVSVVISFCRHCGDDIAGLVPRKVKSAAEKFNLSFPPSEIISPEKQQPFQNLLKEYFTSLTKHLKRDHRELQNTERQNRRILHSKGELSEDRHKQYEEFAMSYQKLLANSQSLADLLDENMPDLPQDKPTPEEHGPGIDIFTPGKPGEYDLEGGIWEDEDARNFYENLIDLKAFVPAILFKDNEKSCQNKESNKDDTKEAKESKENKEVSSPDDLELELENLEINDDTLELEGGDEAEDLTKKLLDEQEQEDEEASTGSHLKLIVDAFLQQLPNCVNRDLIDKAAMDFCMNMNTKANRKKLVRALFIVPRQRLDLLPFYARLVATLHPCMSDVAEDLCSMLRGDFRFHVRKKDQINIETKNKTVRFIGELTKFKMFTKNDTLHCLKMLLSDFSHHHIEMACTLLETCGRFLFRSPESHLRTSVLLEQMMRKKQAMHLDARYVTMVENAYYYCNPPPAEKTVKKKRPPLQEYVRKLLYKDLSKVTTEKVLRQMRKLPWQDQEVKDYVICCMINIWNVKYNSIHCVANLLAGLVLYQEDVGIHVVDGVLEDIRLGMEVNQPKFNQRRISSAKFLGELYNYRMVESAVIFRTLYSFTSFGVNPDGSPSSLDPPEHLFRIRLVCTILDTCGQYFDRGSSKRKLDCFLVYFQRYVWWKKSLEVWTKDHPFPIDIDYMISDTLELLRPKIKLCNSLEESIRQVQDLEREFLIKLGLVNDKDSKDSMTEGENLEEDEEEEEGGAETEEQSGNESEVNEPEEEEGSDNDDDEGEEEEEENTDYLTDSNKENETDEENTEVMIKGGGLKHVPCVEDEDFIQALDKMMLENLQQRSGESVKVHQLDVAIPLHLKSQLRKGPPLGGGEGEAESADTMPFVMLTRKGNKQQFKILNVPMSSQLAANHWNQQQAEQEERMRMKKLTLDINERQEQEDYQEMLQSLAQRPAPANTNRERRPRYQHPKGAPNADLIFKTGGRRR
B2: UPF3B^WT, Flag tagged [human] / inositol-requiring enzyme-1α (IRE1α), endogenous [human (endogenous in HEK293T and U2OS)] (parent complex)
chain 1: B1 chain 1
chain 2: IFGSTSTVTLPETLLFVSTLDGSLHAVSKRTGSIKWTLKEDPVLQVPTHVEEPAFLPDPNDGSLYTLGSKNNEGLTKLPFTIPELVQASPCRSSDGILYMGKKQDIWYVIDLLTGEKQQTLSSAFADSLCPSTSLLYLGRTEYTITMYDTKTRELRWNATYFDYAASLPEDDVDYKMSHFVSNGDGLVVTVDSESGDVLWIQNYASPVVAFYVWQREGLRKVMHINVAVETLRYLTFMSGEVGRITKWKYPFPKETEAKSKLTPTLYVGKYSTSLYASPSMVHEGVAVVPRGSTLPLLEGPQTDGVTIGDKGECVITPSTDVKFDPGLKSKNKLNYLRNYWLLIGHHETPLSASTKMLERFPNNLPKHRENVIPADSEKKSFEEVINLVDQTSENAPTTVSRDVEEKPAHAPARPEAPVDSMLKDMATIILSTFLLIGWVAFIITYPLSMHQQQQLQHQQFQKELEKIQLLQQQQQQLPFHPPGDTAQDGELLDTSGPYSESSGTSSPSTSPRASNHSLCSGSSASKAGSSPSLEQDDGDEETSVVIVGKISFCPKDVLGHGAEGTIVYRGMFDNRDVAVKRILPECFSFADREVQLLRESDEHPNVIRYFCTEKDRQFQYIAIELCAATLQEYVEQKDFAHLGLEPITLLQQTTSGLAHLHSLNIVHRDLKPHNILISMPNAHGKIKAMISDFGLCKKLAVGRHSFSRRSGVPGTEGWIAPEMLSEDCKENPTYTVDIFSAGCVFYYVISEGSHPFGKSLQRQANILLGACSLDCLHPEKHEDVIARELIEKMIAMDPQKRPSAKHVLKHPFFWSLEKQLQFFQDVSDRIEKESLDGPIVKQLERGGRAVVKMDWRENITVPLQTDLRKFRTYKGGSVRDLLRAMRNKKHHYRELPAEVRETLGSLPDDFVCYFTSRFPHLLAHTYRAMELCSHERLFQPYYFHEPPEPQPPVTPDAL

Variants of: B1
Experiment: co-immunoprecipitation (IP: Flag, blot UPF2), western blot band quantification; transfected for 24 h

Variant	ratio to parent
chain 1 T169D	0.2
chain 1 T169A	1.1

Variants of: B1
Experiment: as above
Remark: another data set of the same source

Variant	ratio to parent
chain 1 T198D	1.07
chain 1 T197D	1.11

Variants of: B1
Experiment: as above
Remark: another data set of the same source

Variant	ratio to parent
chain 1 Y160D	0.21
chain 1 Y160F	1.08

Variants of: B2
Experiment: co-immunoprecipitation (IP: Flag, blot IRE1α), western blot band quantification; transfected for 24 h

Variant	ratio to parent
chain 1 T198D	1.21
chain 1 T198A	1.06

Variants of: B2
Experiment: as above
Remark: another data set of the same source

Variant	ratio to parent
chain 1 T197D	1.1
chain 1 T197A	1.22

Variants of: B2
Experiment: co-immunoprecipitation (IP: Flag, blot IRE1α), western blot band quantification; HEK293T cells, transfected for 24 h

Variant	ratio to parent
chain 1 T169D	0.26
chain 1 T169A	1.15

Variants of: B2
Experiment: co-immunoprecipitation (IP: Flag, blot IRE1α), western blot band quantification; U2OS cells, transfected for 24 h

Variant	ratio to parent
chain 1 Y160D	0.17
chain 1 Y160F	1.29

Variants of: B2
Experiment: co-immunoprecipitation (IP: Flag, blot IRE1α), western blot band quantification; HEK293T cells, transfected for 24 h
Remark: another data set of the same source

Variant	ratio to parent
chain 1 Y160D	0.21
chain 1 Y160F	1.28
